Test results reported in patent publication US20230220084A1.
Numbering of substitutions follows the chain as printed. “And” between values parts separate entries of the source, which are not always exact repeats. Identical values can stand only once. Values belong to the binder of their own block, whether it stands above or below them.

Key:
[1] = target: hCLEC12A-His fusion protein (human) (UniProt Q5QGZ9); experiment: SPR screening, semi-purified protein
[2] = target: human CLEC12A expressed on cells (human) (UniProt Q5QGZ9); experiment: flow cytometry on RMA-hCLEC12A cells
Sequence of human CLEC12A expressed on cells (human) (Q5QGZ9 whole entry, the tested form may be a part): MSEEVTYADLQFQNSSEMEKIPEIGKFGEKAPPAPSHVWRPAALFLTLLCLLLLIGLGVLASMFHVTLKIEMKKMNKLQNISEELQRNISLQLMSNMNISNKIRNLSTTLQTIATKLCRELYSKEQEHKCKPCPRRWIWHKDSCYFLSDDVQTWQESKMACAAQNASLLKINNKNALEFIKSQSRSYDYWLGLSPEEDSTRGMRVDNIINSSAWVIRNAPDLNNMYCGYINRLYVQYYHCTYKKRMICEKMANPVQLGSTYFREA

[3] = target: hCLEC12A-His fusion protein (human) (UniProt Q5QGZ9); experiment: SPR (Biacore) 37 C
[4] = target: hCLEC12A-His fusion protein (human) (UniProt Q5QGZ9); experiment: SPR (Biacore) 37 C, mean of 4
[5] = target: human CLEC12A expressed on cells (human) (UniProt Q5QGZ9); experiment: flow cytometry, hCLEC12A+Ba/F3 cells
[6] = target: hCLEC12A-His fusion protein (human) (UniProt Q5QGZ9); experiment: SPR, analyte glycosylated hCLEC12A
[7] = target: De-sialylated hCLEC12A (human) (UniProt Q5QGZ9); experiment: SPR, analyte de-sialylated hCLEC12A
Sequence of De-sialylated hCLEC12A (human) (Q5QGZ9 65-265 limits assumed): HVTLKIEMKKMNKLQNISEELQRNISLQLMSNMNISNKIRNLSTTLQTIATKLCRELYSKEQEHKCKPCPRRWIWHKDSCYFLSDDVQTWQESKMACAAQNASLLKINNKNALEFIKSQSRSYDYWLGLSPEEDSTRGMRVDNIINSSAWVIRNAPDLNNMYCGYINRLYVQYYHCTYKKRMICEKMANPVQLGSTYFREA

[8] = target: De-glycosylated hCLEC12A (human) (UniProt Q5QGZ9); experiment: SPR, analyte de-glycosylated hCLEC12A
Sequence of De-glycosylated hCLEC12A (human) (Q5QGZ9 65-265 limits assumed): as above

[9] = target: human CLEC12A expressed on cells (human) (UniProt Q5QGZ9); experiment: flow cytometry, U937 cells
[10] = target: hCLEC12A-His fusion protein (human) (UniProt Q5QGZ9); experiment: SPR 37 C, hybridoma supernatant
[11] = target: cynomolgus CLEC12A expressed on RMA cells (cynomolgus monkey); experiment: flow cytometry, RMA-cCLEC12A cells
Sequence of cynomolgus CLEC12A expressed on RMA cells (cynomolgus monkey) (chain, as listed by the source): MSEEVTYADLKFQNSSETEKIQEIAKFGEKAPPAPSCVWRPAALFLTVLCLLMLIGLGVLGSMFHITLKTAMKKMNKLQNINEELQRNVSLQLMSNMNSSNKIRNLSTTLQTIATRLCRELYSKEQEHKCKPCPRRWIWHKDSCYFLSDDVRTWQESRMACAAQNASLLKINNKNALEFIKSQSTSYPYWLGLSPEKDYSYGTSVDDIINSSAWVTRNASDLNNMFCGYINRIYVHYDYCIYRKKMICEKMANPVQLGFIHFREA

[12] = target: human CLEC12A expressed on cells (human) (UniProt Q5QGZ9); experiment: flow cytometry, RMA-hCLEC12A cells
[13] = target: human CLEC12A expressed on cells (human) (UniProt Q5QGZ9); experiment: flow cytometry, HL60 cells

Sequence of hCLEC12A-His fusion protein (human) (Q5QGZ9 65-265 limits assumed): as the sequence (Q5QGZ9 65-265 limits assumed) above

- Kd [3]: 1.43 nM and 1.42 nM and 1.44 nM
- Kd [4]: 1.43 nM
- koff [4]: 0.000594 s⁻¹
- kon [4]: 415000 M⁻¹ s⁻¹
- Kd [1]: 2.94 nM
- koff [1]: 0.00153 s⁻¹
- kon [1]: 520000 M⁻¹ s⁻¹
- EC50 [5]: 26.1 nM
- Max MFI [5]: 48000 MFI
B4: F3′-1295 (bispecific antibody, part only; not given: Fc and unrelated binding arm, not shown: another chain or arm of the molecule; a dimerising Fc or GST)
scFv: QLQLQESGPGLVKPSETLSLTCTVSGFSLTNYGLHWIRQPPGKCLEWIGVIWSGGKTDYNPSLKSRVTISKDTSKNQFSLKLSSVQAADTAVYYCAKYDYDDSLDYWGQGTLVTVSSGGGGSGGGGSGGGGSGGGGSDIQMTQSPSSLSASVGDRVTITCHASQNINFWLSWYQQKPGKIPKLLIYEASNLHTGVPSRFSGSGSGTRFTLTISSLQPEDIATYYCQQSHSYPLTFGCGTKLEIK

- Kd [1]: 2.79 nM
- koff [1]: 0.00141 s⁻¹
- kon [1]: 504000 M⁻¹ s⁻¹
B5: F3′-1297 (bispecific antibody, part only; not given: Fc and unrelated binding arm, not shown: another chain or arm of the molecule; a dimerising Fc or GST; small tags and cut ends)
scFv: B4 scFv with A88N, I180A

- EC50 [13]: 0.5 nM
- Max binding MFI [13]: 412 MFI
- Kd [1]: 1.04 nM
- koff [1]: 0.00117 s⁻¹
- kon [1]: 1.12e+06 M⁻¹ s⁻¹
- EC50 [5]: 0.7 nM
- Max binding MFI [5]: 8160 MFI
B11: AB0186 (bispecific antibody, part only; not given: Fc, unrelated binder arm, linkers, not shown: another chain or arm of the molecule; a dimerising Fc or GST; small tags and cut ends)
scFv: DIQMTQSPSSLSASVGDRVTITCKASQDIYNYLSWFQQKPGKAPKPLIYRANILVSGVPSRFSGSGSGQDYTFTISSLQPEDIATYYCLQFDAFPFTFGCGTKLEIKGGGGSGGGGSGGGGSGGGGSEVQLVESGGGVVQPGGSLRLSCAASGFTFNAFGMHWVRQAPGKCLEWVAFISSGSTSIYYANTVKGRFTISRDNSKNTLYLQMNSLRAEDTAVYYCARDGYPTGGAMDYWGQGTSVTVSS

- EC50 [13]: 0.7 nM
- Max binding MFI [13]: 420 MFI
- Kd [1]: 1.21 nM
- koff [1]: 0.00127 s⁻¹
- kon [1]: 1.04e+06 M⁻¹ s⁻¹
- EC50 [5]: 1.3 nM
- Max binding MFI [5]: 8760 MFI
B12: AB0189 (bispecific antibody, part only; not given: Fc, unrelated binder arm, linkers, not shown: another chain or arm of the molecule; a dimerising Fc or GST; small tags and cut ends)
scFv: B11 scFv with Q3K, F73L

- Cell Binding MFI [9]: 44.1 MFI
- Cell Binding MFI [11]: 1130 MFI
- Cell Binding MFI [12]: 819 MFI
B14: 16B08 hybridoma supernatant antibody (antibody, from a related filing, V domains shown)
VH: EVQLQESGPGLVQPSQSLSITCTVSGFSLTNYGLHWVRQSPGKGLEWLGVIWSGGKTDYNTPFKSRLSISKDISKNQVFFKMNSLQPNDTAIYFCAKYDYDDSLDYWGQGTSVTVSS
VL: DIQMNQSPSSLSASLGDTIAITCHASQNINFWLSWYQQKPGNIPKLLIYEASNLHTGVPSRFSGSGSGTRFTLTISSLQPEDIATYYCQQSHSYPLTFGQGTKLEIK

Continued, binder first:

B1: F3′-1304 (bispecific antibody, part only; not given: Fc and unrelated binding arm, not shown: another chain or arm of the molecule; a dimerising Fc or GST; small tags and cut ends)
scFv: DIQMTQSPSSLSASVGDRVTITCHASQNINFWLSWYQQKPGKIPKLLIYEASNLHTGVPSRFSGSGSGTRFTLTISSLQPEDIATYYCQQSHSYPLTFGCGTKLEIKGGGGSGGGGSGGGGSGGGGSQLQLQESGPGLVKPSETLSLTCTVSGFSLTNYGLHWIRQPPGKCLEWIGVIWSGGKTDYNPSLKSRVTISKDTSKNQFSLKLSSVQAADTAVYYCAKYDYDDSLDYWGQGTLVTVSS
- Kd [1]: 2.7 nM
- koff [1]: 0.0013 s⁻¹
- kon [1]: 480000 M⁻¹ s⁻¹
- EC50 (read off the curve) [2]: 10 nM

B2: F3′-1306 (bispecific antibody, part only; not given: Fc and unrelated binding arm, not shown: another chain or arm of the molecule; a dimerising Fc or GST; small tags and cut ends)
scFv: B1 scFv with I43A, A215N
- Kd [1]: 5.16 nM
- koff [1]: 0.0489 s⁻¹
- kon [1]: 9.48e+06 M⁻¹ s⁻¹

B3: F3′-1292 (bispecific antibody, part only; not given: Fc and unrelated binding arm, not shown: another chain or arm of the molecule; a dimerising Fc or GST)
scFv: B4 scFv with A88N
- Kd [1]: 3.22 nM
- koff [1]: 0.0013 s⁻¹
- kon [1]: 402000 M⁻¹ s⁻¹

B6: F3′-1296 (bispecific antibody, part only; not given: Fc and unrelated binding arm, not shown: another chain or arm of the molecule; a dimerising Fc or GST)
scFv: B4 scFv with A88N, K97R
- Kd [1]: 1.34 nM
- koff [1]: 0.00117 s⁻¹
- kon [1]: 874000 M⁻¹ s⁻¹

B7: Murine F3′-9F11 (bispecific antibody, part only; not given: format, linker, Fc, other arm, V domains shown, not shown: a dimerising Fc or GST)
VH: EVQLQESGGGLVQPGGSRKLSCAASGFTFNSFGMHWVRQAPEKGLEWVAFISSGSTSIYYANTVKGRFTISRDNPKNTLFLQMTSLRSEDTAMYYCARDGYPTGGAMDYWGQGTSVTVSS
VL: DIKMTQSPSSMYASLGERVTITCKASQDIYNYLSWFQLKPGKSPRPLIYRANILVSGVPSKFSGSGSGQDYSLTINSLEYEDLGIYYCLQFDAFPFTFGSGTKLEIK
- Kd [6]: 0.96 nM
- koff [6]: 0.00111 s⁻¹
- kon [6]: 1.15e+06 M⁻¹ s⁻¹
- Kd [7]: 0.62 nM
- koff [7]: 0.00098 s⁻¹
- kon [7]: 1.58e+06 M⁻¹ s⁻¹
- Kd [8]: 0.34 nM
- koff [8]: 0.000374 s⁻¹
- kon [8]: 1.11e+06 M⁻¹ s⁻¹

B8: 15A10 hybridoma supernatant antibody (antibody, from a related filing, V domains shown)
VH: EVQLQESGAELVRSGASIKLSCAASAFNIKDYFIHWVRQRPDQGLEWIGWIDPENDDTEYAPKFQDKATMTADTSSNTAYLQLSSLTSADTAVYYCNALWSRGGYFDYWGQGTTLTVSS
VL: EVLLTQSPAIIAASPGEKVTITCSARSSVSYMSWYQQKPGSSPKIWIYGISKLASGVPARFSGSGSGTYFSFTINNLEAEDVATYYCQQRSYYPFTFGSGTKLEIK
- Cell Binding MFI [9]: 83.8 MFI
- Kd [10]: 15.8 nM
- koff [10]: 0.00223 s⁻¹
- Cell Binding MFI [11]: 167 MFI
- Cell Binding MFI [12]: 372 MFI

B9: AB0185 (bispecific antibody, part only; not given: Fc, unrelated binder arm, linkers, not shown: another chain or arm of the molecule; a dimerising Fc or GST; small tags and cut ends)
scFv: B11 scFv with A158S
- EC50 [13]: 0.4 nM
- Max binding MFI [13]: 372 MFI
- Kd [1]: 1.4 nM
- koff [1]: 0.00101 s⁻¹
- kon [1]: 726000 M⁻¹ s⁻¹
- EC50 [5]: 0.7 nM
- Max binding MFI [5]: 8020 MFI

B10: AB0188 (bispecific antibody, part only; not given: Fc, unrelated binder arm, linkers, not shown: another chain or arm of the molecule; a dimerising Fc or GST; small tags and cut ends)
scFv: B11 scFv with Q3K, F73L, A158S
- Kd [1]: 1.58 nM
- koff [1]: 0.000901 s⁻¹
- kon [1]: 569000 M⁻¹ s⁻¹

B13: AB0010 (bispecific antibody, part only; not given: constant domains, Fc, unrelated scFv, V domains shown, not shown: another chain or arm of the molecule; a dimerising Fc or GST)
VH: QLQLQESGPGLVKPSETLSLTCTVSGFSLTNYGLHWIRQPPGKGLEWIGVIWSGGKTDYNPSLKSRVTISKDTSKNQFSLKLSSVQAADTAVYYCAKYDYDDSLDYWGQGTLVTVSS
VL: B14 VL with N5T, L15V, T18R, I19V, A20T, N42K, I43A, Q100G
- EC50 [13]: 4.2 nM
- Max MFI [13]: 6060 MFI
- EC50 [5]: 6.13 nM
- Max MFI [5]: 54800 MFI

B15: AB0191 (bispecific antibody, part only; not given: Fc, unrelated binder arm, linkers, not shown: another chain or arm of the molecule; a dimerising Fc or GST; small tags and cut ends)
scFv: EVQLVESGGGVVQPGGSLRLSCAASGFTFNSFGMHWVRQAPGKCLEWVAFISSGSTSIYYANTVKGRFTISRDNSKNTLYLQMNSLRAEDTAVYYCARDGYPTGGAMDYWGQGTSVTVSSGGGGSGGGGSGGGGSGGGGSDIQMTQSPSSLSASVGDRVTITCKASQDIYNYLSWFQQKPGKAPKPLIYRANILVSGVPSRFSGSGSGQDYTFTISSLQPEDIATYYCLQFDAFPFTFGCGTKLEIK
- EC50 [13]: 0.6 nM
- Max binding MFI [13]: 420 MFI
- Kd [1]: 1.73 nM
- koff [1]: 0.00126 s⁻¹
- kon [1]: 728000 M⁻¹ s⁻¹
- EC50 [5]: 0.6 nM
- Max binding MFI [5]: 7940 MFI

B16: AB0192 (bispecific antibody, part only; not given: Fc, unrelated binder arm, linkers, not shown: another chain or arm of the molecule; a dimerising Fc or GST; small tags and cut ends)
scFv: B15 scFv with S31A
- EC50 [13]: 0.6 nM
- Max binding MFI [13]: 503 MFI
- Kd [1]: 1.26 nM
- koff [1]: 0.00138 s⁻¹
- kon [1]: 1.09e+06 M⁻¹ s⁻¹
- EC50 [5]: 0.7 nM
- Max binding MFI [5]: 10200 MFI

B17: AB0195 (bispecific antibody, part only; not given: Fc and unrelated binding arm, not shown: another chain or arm of the molecule; a dimerising Fc or GST)
scFv: B15 scFv with S31A, Q143K, F213L
- EC50 [13]: 0.7 nM
- Max binding MFI [13]: 551 MFI
- Kd [1]: 1.68 nM
- koff [1]: 0.00129 s⁻¹
- kon [1]: 766000 M⁻¹ s⁻¹
- EC50 [5]: 0.6 nM
- Max binding MFI [5]: 10800 MFI
